Experimental findings from US20020160496A1 (DUKE UNIVERSITY, published 2002) are described below.

The data set concerns the molecule itself. Put plainly: blue native PAGE (BN-PAGE) of native, heat shocked and bis-ANS treated GRP94; self-association.

B1: GRP94 (glucose regulated protein of 94 kDa) purified from porcine pancreas (other, UniProt Q29092 22-804, looked up)
chain: EDEVDVDGTVEEDLGKSREGSRTDDEVVQREEEAIQLDGLNASQIRELREKSEKFAFQAEVNRMMKLIINSLYKNKEIFLRELISNASDALDKIRLISLTDENALAGNEELTVKIKCDKEKNLLHVTDTGVGMTREELVKNLGTIAKSGTSEFLNKMAEAQEDGQSTSELIGQFGVGFYSAFLVADKVIVTSKHNNDTQHIWESDSNEFSVIADPRGNTLGRGTTITLVLKEEASDYLELDTIKNLVKKYSQFINFPIYVWSSKTETVEEPMEEEEAAKEEKEESDDEAAVEEEEEEKKPKTKKVEKTVWDWELMNDIKPIWQRPSKEVEDDEYKAFYKSFSKESDDPMAYIHFTAEGEVTFKSILFVPTSAPRGLFDEYGSKKSDYIKLYVRRVFITDDFHDMMPKYLNFVKGVVDSDDLPLNVSRETLQQHKLLKVIRKKLVRKTLDMIKKIADEKYNDTFWKEFGTNIKLGVIEDHSNRTRLAKLLRFQSSHHPSDITSLDQYVERMKEKQDKIYFMAGSSRKEAESSPFVERLLKKGYEVIYLTEPVDEYCIQALPEFDGKRFQNVAKEGVKFDESEKSKENREAVEKEFEPLLNWMKDKALKDKIEKAVVSQRLTESPCALVASQYGWSGNMERIMKAQAYQTGKDISTNYYASQKKTFEINPRHPLIRDMLRRVKEDEDDKTVSDLAVVLFETATLRSGYLLPDTKAYGDRIERMLRLSLNIDPDAKVEEEPEEEPEETTEDTTEDTEQDDDEEMDAGADEEEQETSETSTAEKDEL
notes: also called gp96; ERp99
On to B1, for which the binding result is on record as “binds”.
